How the values were obtained:
EGFR-Fc = biological target: T1, EGFR-Fc (UniProt P00533 25-645); test: ELISA, EGFR-Fc
T1 construct: also called purified EGFR-Fc; not shown: Fc part

[1] = biological target: T2, EGFR on EGFR-positive tumor cell lines (UniProt P00533 25-1210, limits assumed); test: flow cytometry, Colo205 cells
T2 construct: whole, on cells; The cell line is named under assay or readout; also called EGFR+ cell lines

[2] = biological target: T2, EGFR on EGFR-positive tumor cell lines; test: flow cytometry, HCT116 cells

| EC50 (EGFR-Fc) | EC50 [1] | EC50 [2] | Binder |
| --- | --- | --- | --- |
| 0.343 nM | 0.081 nM | 0.118 nM | anti-EGFR IgG HC-scTRAIL3-FAVSGAA (other, scTRAIL3-FAVSGAA at the C-terminus of the heavy chain; also called IgG-heavy chain (HC)-scTRAIL3) heavy: ASDYKDDDDKGAEVQLVESGGGLVQPGGSLRLSCAASGFSLTNYGVHWVRQAPGKGLEWLGVIWSGGNTDYNTPFTSRFTISRDNSKNTLYLQMNSLRAEDTAVYYCARALTYYDYEFAYWGQGTTVTVSSASTKGPSVFPLAPSSKSTSGGTAALGCLVKDYFPEPVTVSWNSGALTSGVHTFPAVLQSSGLYSLSSVVTVPSSSLGTQTYICNVNHKPSNTKVDKKVEPKSCDKTHTCPPCPAPPVAGPSVFLFPPKPKDTLMISRTPEVTCVVVDVSHEDPEVKFNWYVDGVEVHNAKTKPREEQYNSTYRVVSVLTVLHQDWLNGKEYKCKVSNKGLPSSIEKTISKAKGQPREPQVYTLPPSRDELTKNQVSLTCLVKGFYPSDIAVEWESNGQPENNYKTTPPVLDSDGSFFLYSKLTVDKSRWQQGNVFSCSVMHEALHNHYTQKSLSLSPGKAAGNGTSNGTSEFGGAAAHITGTRGRSNTLSSPNSKNEKALGRKINSWESSRSGHSFLSNLHLRNGELVIHEKGFYYIYSQTYFRFQEEIKENTKNDKQMVQYIYKYTSYPDPILLMKSARNSCWSKDAEYGLYSIYQGGIFELKENDRIFVSVTNEHLIDMDHEASFFGAFAVSGAAAHITGTRGRSNTLSSPNSKNEKALGRKINSWESSRSGHSFLSNLHLRNGELVIHEKGFYYIYSQTYFRFQEEIKENTKNDKQMVQYIYKYTSYPDPILLMKSARNSCWSKDAEYGLYSIYQGGIFELKENDRIFVSVTNEHLIDMDHEASFFGAFAVSGAAAHITGTRGRSNTLSSPNSKNEKALGRKINSWESSRSGHSFLSNLHLRNGELVIHEKGFYYIYSQTYFRFQEEIKENTKNDKQMVQYIYKYTSYPDPILLMKSARNSCWSKDAEYGLYSIYQGGIFELKENDRIFVSVTNEHLIDMDHEASFFGAFAVS light: DIQLTQSPSFLSASVGDRVTITCRASQSIGTNIHWYQQKPGKAPKLLIKYASESISGVPSRFSGSGSGTEFTLTISSLQPEDFATYYCQQNNNWPTTFGAGTKLEIKRTVAAPSVFIFPPSDEQLKSGTASVVCLLNNFYPREAKVQWKVDNALQSGNSQESVTEQDSKDSTYSLSSTLTLSKADYEKHKVYACEVTHQGLSSPVTKSFNRGEC |
| 0.46 nM | 0.148 nM | 0.181 nM | anti-EGFR IgG LC-scTRAIL3-FAVSGAA (other, scTRAIL3-FAVSGAA at the C-terminus of the kappa light chain through a 15 aa peptide with two N-glycosylation sites; also called IgG-light chain (LC)-scTRAIL3) heavy: ASDYKDDDDKGAEVQLVESGGGLVQPGGSLRLSCAASGFSLTNYGVHWVRQAPGKGLEWLGVIWSGGNTDYNTPFTSRFTISRDNSKNTLYLQMNSLRAEDTAVYYCARALTYYDYEFAYWGQGTTVTVSSASTKGPSVFPLAPSSKSTSGGTAALGCLVKDYFPEPVTVSWNSGALTSGVHTFPAVLQSSGLYSLSSVVTVPSSSLGTQTYICNVNHKPSNTKVDKKVEPKSCDKTHTCPPCPAPPVAGPSVFLFPPKPKDTLMISRTPEVTCVVVDVSHEDPEVKFNWYVDGVEVHNAKTKPREEQYNSTYRVVSVLTVLHQDWLNGKEYKCKVSNKGLPSSIEKTISKAKGQPREPQVYTLPPSRDELTKNQVSLTCLVKGFYPSDIAVEWESNGQPENNYKTTPPVLDSDGSFFLYSKLTVDKSRWQQGNVFSCSVMHEALHNHYTQKSLSLSPGK light: DIQLTQSPSFLSASVGDRVTITCRASQSIGTNIHWYQQKPGKAPKLLIKYASESISGVPSRFSGSGSGTEFTLTISSLQPEDFATYYCQQNNNWPTTFGAGTKLEIKRTVAAPSVFIFPPSDEQLKSGTASVVCLLNNFYPREAKVQWKVDNALQSGNSQESVTEQDSKDSTYSLSSTLTLSKADYEKHKVYACEVTHQGLSSPVTKSFNRGECAAGNGTSNGTSEFGGAAAHITGTRGRSNTLSSPNSKNEKALGRKINSWESSRSGHSFLSNLHLRNGELVIHEKGFYYIYSQTYFRFQEEIKENTKNDKQMVQYIYKYTSYPDPILLMKSARNSCWSKDAEYGLYSIYQGGIFELKENDRIFVSVTNEHLIDMDHEASFFGAFAVSGAAAHITGTRGRSNTLSSPNSKNEKALGRKINSWESSRSGHSFLSNLHLRNGELVIHEKGFYYIYSQTYFRFQEEIKENTKNDKQMVQYIYKYTSYPDPILLMKSARNSCWSKDAEYGLYSIYQGGIFELKENDRIFVSVTNEHLIDMDHEASFFGAFAVSGAAAHITGTRGRSNTLSSPNSKNEKALGRKINSWESSRSGHSFLSNLHLRNGELVIHEKGFYYIYSQTYFRFQEEIKENTKNDKQMVQYIYKYTSYPDPILLMKSARNSCWSKDAEYGLYSIYQGGIFELKENDRIFVSVTNEHLIDMDHEASFFGAFAVS |
